Reference: the DeepSol protein solubility set

Experiment: soluble on expression in E. coli; label from the status in PepcDB or PDB records

Soluble on expression in E. coli, not soluble:
MAYDLAVPGPIMQEVAQYLASLSGKAVVINIFAGHADRSLSQTQLAELLDKLLARHPGSAVILLDHRREIRIPLPPEVVINPFNTLHHAMALIAQAELIISPDTSVVHMAAAWNKPLIAVYKDVLLNNRLWAPGYDNARQIIVKCGKVHQHRGLVDRIIAALPETLLEHHHHHH, MKQRQWQGWGPGEQAEQQHYLVQPRALAGGGDIRHVSEFLRASGWRDKSKTCGPLLMESPDRTVRVAYDPYILPGGWTIHGRTGAKGEWSAHLGLQTPVEIVAGLTDALTRPRSAHAPSVWEPLQEQNWHTRFADQNYTATSPDGAAWMQYRQDADGSAMWWTGAKDEEGNGWTAHFTPNTPMHLVQAFSTELAGPDPVMRPRGRVPHSAQIRTWSVSVKPSQLSAWQQARITAARAATWARSSTRGTRPRTTARPHTPTGGARTRRLEHHHHHH, MGSDKIHHHHHHMSRTLIIYSTVDGQTKAICDQIAEQCKSDTQPVTMVSLEEAQSVNLSYFDKVIIGASIRYGKHRPELFQYVNRHRAVLNGKKNAFFTVNVVARKPEKNTPETNPYMKKFLQLSLWQPQQLGVFAGKIDYPKYRFFDKFMIRFIMWITKGPTDTSGTYEFTDWDKVQEFAKAFSER, KVLGDGSYLFEGKTSLSDVRHYLDLPENAFGELGDEVDTLSGLFLEIKQELPHVGDTAVYEPFRFQVTQMDKRRIIEIKIFPFERTWEVE, MGSDKIHHHHHHMNKYIYLLAVVFGLSSCNDFLELSPTNKVIETDYYKTQEDLTEALVAAYDPLKWNAYNAYSSYELVSNIMSDDAETGGSTVSDQPQLQRVNDFTNWVTPTNLPEGLWGRSYEGVNRANIVIEKCPLLPEGTMSAELRDRYVAEAHFLRVFYYFQLWRFFGYIPYYETNLGLDDITTVPQLQPDEVYAKLIEDLDNNVIGKLPKVVPANEKGRATNGAAIAMKARIVLYQNDDTKMKEIASQLKELITDPAYQYDLIPDYKVLFDDEYEWCKESVFEVNYTEIGNSNDWAGKANQGNSDIIMLGARGLKDPNNVYVEGWGFAPVTKALNDAFLPDDPRKWTTIIDHEEFRAEGGTISSDVNQYTGYSVRKYHPRAGYSSTVGTEALNYKNNYRVIRFSDILLMASEALLRSGGSVGEAQDYYARVVKRAMGDDYKVPTVSLDNIYKERRYEFAMEGIRYWDLVRTNQAKDFIKGWDDTKKYLPIPQSEIDKSDGHLVQNPHF, MQKEFFQELQDILYEKNITIKFHSFQNFYEDFKSHKFIFNHEHQSIFKKNTSQQITLFHPTRIRRPKFLNSTHALAKIIHSVAHIEFNAINLALDASYRFKNLPLQFYYDWLEVADEEIKHFKLLNSALEELGYKYGDFPVHDNLESALEATKDSLSFRMGIVHRGLEAKGLDANPFVVQKLQSSNHSIKNLLMEYLEIILNDEIKHVKKGDTWWKFANQNKYNFIELCKTFKQFSLAGKKLNIQARIKAGFTQEECEVIEKFYSLEHHHHHH, MGSDKIHHHHHHMSILTVSNLSHGFGDRAIFEDVSFRLLKGEHIGLVGANGEGKSTFMNIITSQLEPDEGKVEWAKHVRVGYLDQHAVLSKGLTIRDALKGAFQYLFDIEQEINDLYTKMGEVEPDELEKMLEEVGVLQDILTNNDFYTIDAKVEEIARGLGLDEIGLDRDVQELSGGQRTKILLAKLLLEKPDILLLDEPTNYLDVQHIEWLKRYLNDYENAFILISHDIPFLNSVINLIYHMENQGLNRYVGDYDNFLTVHEAKKKQHESAFKRQQQEISELKDFVARNKARVSTRNMAMSRQKKLDKMDVIELAQERPKPEFHFQTARTPSKLMFEAKGLVIGYDEPLSRPLDLMIERGQKIALHGANGIGKSTLLKSLLGEIPSVSGTVERGENLHIGYFEQEIKEKNSNTCIEEIWGTFPSLTQQQVRAMLAKCGLMTKHIESKIEVLSGGEKAKVRLCKLMNTESNILVLDEPTNHLDVEAKEELKRALQEYKGTVLLISHEPEFYEAVATDLWNCESWTTKVF, MGSDKIHHHHHHMSNTKKGLATAGYNDDLAKLEEIFLPNFFYKKMQYYFSSSGLISNDVLFVHYTSTESALDIIREKRVLMRNALHMPDRQEVQDGFNIMDGLLSNENNHWVEFRNRIEVVLPGVVDRVMKIYSDHSHGRNDGTYFLSVLEHDESEKELGRLSMWRAFCGQSQPVAMFLRLPALSAVSQVLRIFFNPVLYKGKGQQHLELAEVIKNVENHKSFLERLDPDLVTSAIVSMILINVLCVKHKVFKEEREWRCVYLPKCFTSETSARLIEPGVEEQVGASRNVYKMPLNAAIDPVLSDIDLSKIFDSLIIGPSKSPYATYEVFCDELKKIGVSDVESKVRVTEIPVR

Soluble on expression in E. coli, soluble:
MPRIRCERCARPASHCLCALIPSLPSRTRVLVLQHPSEVGHALNTAGLAVLGLCNAELRVGERFAEETWRVPGYRACLLFPGEQARALAEMAAEAAGEPLLLVVPDGTWRKARKLLHLNPALAALPRVSLAEGMASRYRLRKAPGEGALSTIEAIAAALDELEAPRTHEALLKPFDALIEGQIAAMGEDTYRRNHLSQERRRRLEHHHHHH, MSEIGTGFPFDPHYVEVLGERMHYVDVGPRDGTPVLFLHGNPTSSYLWRNIIPHVAPSHRCIAPDLIGMGKSDKPDLDYFFDDHVRYLDAFIEALGLEEVVLVIHDWGSALGFHWAKRNPERVKGIACMEFIRPIPTWDEFHHTEVAEEQDHAEAARETFQAFRTADVGRELIIDQNAFIERVLPGGVVRPLTEVEMDHYREPFLKPVDREPLWRFPNELPIAGEPANIVALVEAYMNWLHQSPVPKLLFWGTPGALIPPAEAARLAESLPNCKTVDIGPGLHYLQEDNPDLIGSEIARWLPAL, MSDKPEDENTNENPGRRRFLGGMAALGAGVTLSGYVSAHERPPAEAEKHHLVGPALDRALRENVKTVVVIYAENRSFNNLFGNFPGVQKPLSSVRPADYVQRDRNGTLLDKLPPAWGGVLQVGPQTVDGVTYPVGVQFQENLPNAPFPLKGPNAEDLPLSLVTRDLWHVFYQNQMQINDGKNDRFVAWADAGGLTMGNYAQTQYSLRLWDVAKEFVLCDNFFQGAFGGSFLNHQYLISATAPIYPNAADSPAKSQIASLQSMNPLDSRLKPLDKSPASAMEGPPQFGPSAITPDNYAVNTLAPPYWPTWLRDPQNPDYSKPDLANVLVPQSHEHIGDKLSKRNVDWAWYAGAWQVTLDEFKDSTGIPKIPNFQYHHQPFNYFKQQGPQNPEERKKRLRDGGLGDESSTNRFLADAEAGKLPAVAFYKPQGNLNMHAGYADVASGDRHIDRVIKVLRNSPQWDNMVIVVTVDENGGWWDHVAPPKGDRFGPGTRIPALVISPFARKGKVDHTVYDTASILRLITRVHGLEKLDGLKRRDEAMIARGQAPMGDLTNALHFPALEHHHHHH, MSLKMETGKLLMELSNLDGPSGYETNVVSYIKSVIEPFVDEAKTTRHGSLIGYKKGKGIGKLAFFAHVDEIGFVVSKVEGQFARLEPVGGVDPKVVYASKVRIYTKNGIERGVIGMLAPHLQDSESRKKVPTYDEIFVDLSLCERGVRVGDIAVIDQTAFETNGKVVGKALDNRASCGVLVKVLEFLKRYDHPWDVYVVFSVQEETGCLGALTGAYEINPDAAIVMDVTFASEPPFSDHIELGKGPVIGLGPVVDRNLVQKIIEIAKKHNVSLQEEAVGGRSGTETDFVQLVRNGVRTSLISIPLKYMHTPVEMVDPRDVEELARLLSLVAVELEVEGGSHHHHHH, MSSRYSERNGLSETEKMTLPKVRKRKAQLVDEIEALKNEVREVDEELDQVYYTHPKSKEYHKIVVNGRKKFNQDPWKALDWLASRNVVAKDPQALALWMKAGEGLSKSAIGEILGDNRPFALETLDRFTKEHKLHDVPIVPALRQYLFSFRLPGESQKINRILEKFAEVYANQNPSYGNADQAHTVAYSCIMVNTLLHNPNVKDKPSLEKYIEMNEQLLEKGAITIEQLTEVYESVSVTQFKIPDEVSTSGKGTVNDILLHAEREGWLFKQSSNPLFSGALSWKKRWFVLSENCLYYFDQMTDKEPKGIITLANVGIRKVEAPSRPFMFEIFSLSDGQIKACKTEQDGRLVEGRHSIYKICAVNDEDMRSWINAISRMMAPQQHLLARPKSTH
